Data taken from paper PMC10308189 (Bio-protocol, 2023).

Molecular target: the molecule itself
Test: SEC

B1: human amphiphysin 1 N-BAR domain (1-247) (domain or fragment, UniProt P49418 1-247, looked up)
chain: MADIKTGIFAKNVQKRLNRAQEKVLQKLGKADETKDEQFEEYVQNFKRQEAEGTRLQRELRGYLAAIKGMQEASMKLTESLHEVYEPDWYGREDVKMVGEKCDVLWEDFHQKLVDGSLLTLDTYLGQFPDIKNRIAKRSRKLVDYDSARHHLEALQSSKRKDESRISKAEEEFQKAQKVFEEFNVDLQEELPSLWSRRVGFYVNTFKNVSSLEAKFHKEIAVLCHKLYEVMTKLGDQHADKAFTIQG
With B1 the “stoichiometry N” value was 2.
